# Columns and labels:
# NmGT8 protein = experiment: Enzyme reaction of flavone substrates with His-tag purified NmGT8 protein solution and UDP-glucose (HPLC); type: biochemical, Nemophila menziesii; conditions: reactivity to various flavonoid compounds of FIG. 11 and betanidine
# Method: The transformed E. coli were cultured at 37° C. to an OD600 value of 0.5 in 8 ml of the prepared culture liquid (approx. 4 hours). This E. coli culture liquid was then used as a pre-culture liquid and added to 200 ml of culture liquid followed by final culturing overnight at 25° C.
# Following final culturing overnight, the E. coli culture liquid was centrifuged (1000×g, 4° C., 10 minutes), the collected cells were suspended in 20 ml of extract (composition: buffer (KCl: 300 mM, KH2PO4: 50 mM, imidazole: 5 mm) (pH 8.0), amidinophenylmethanesulfonyl fluoride hydrochloride (APMSF): 10 μM), and after crushing the E. coli by ultrasonic treatment, the crushed cells were centrifuged (1400×g, 4° C., 20 minutes) followed by recovery of the supernatant. This supernatant was passed through a 0.45 μm filter and purified by His-Tag protein purification using Profinia (Bio-Rad Laboratories, Inc.) in accordance with the protocol recommended by the manufacturer. The resulting purified protein solution was centrifuged (7500×g, 4° C., 15 minutes) using centrifugal filters (Ultracel-10K, Amicon Corp.) and the concentrated protein solution was designated as “NmGT8 Protein Solution”. The Avanti HP-26XP (rotor: JA-2) (Beckman Coulter Inc.) was used for centrifugation.
# A reaction liquid prepared by mixing 10 μl of protein solution, 2 μl of 50 mM UDP-glucose, 10 μl of 1 M Tris HCl (pH 7.5) and 5 μl of 1 mM apigenin on ice and bringing to a volume of 100 μl with water was held for 20 minutes at 30° C. Subsequently, 100 μl of stop buffer (90% aqueous acetonitrile solution containing 0.1% TFA) were added to stop the reaction followed by analyzing the reaction liquid by high-performance liquid chromatography (Prominence (Shimadzu Corp.)). The Shimadzu PDA SPD-M10AVP was used for the detector and flavone was detected at 330 nm. The Shim-Pack ODS 150 mm×4.6 mm column (Shimadzu Corp.) was used for the column. A Solution A (0.1% aqueous TFA solution) and a Solution B (90% aqueous methanol solution containing 0.1% TFA) were used for elution. Elution was carried out using a linear concentration gradient from an 8:2 mixture of the two solutions to a 3:7 mixture of the two solutions over the course of 10 minutes followed by a 3:7 mixture for 6 minutes. The flow rate was 0.6 ml/min.
# [1] = Enzyme activity of crude enzyme liquid of E. coli expressing NmGT0 to NmGT9 on apigenin (HPLC); type: biochemical, Nemophila menziesii; conditions: 80 μl crude enzyme liquid, UDP-glucose, 1 hour at 30° C., HPLC 330 nm
# Method: 3 μg aliquots of each of pTOPO-NmGT0 to pTOPO-NmGT9 were treated with their corresponding restrictases followed by recovery of the resulting approximately 1.5 kb DNA fragments. 2 μg of vector pET15b was also treated with restrictase and ligated with the resulting DNA fragments to prepare E. coli expression constructs (pET-NmGT0 to pET-NmGT9).
# pET-NmGT0 to pET-NmGT9 were introduced into E. coli strain […] using One Shot BL21 (DE3) (Invitrogen Corp.) in accordance with the protocol recommended by the manufacturer to acquire transformed E. coli. This E. coli was then cultured using the Overnight Express Autoinduction System 1 (Novagen Inc.) in accordance with the protocol recommended by the manufacturer. The transformed E. coli were cultured at 37° C. to an OD600 value of 0.5 in 2 ml of the prepared culture liquid (approx. 4 hours). This E. coli culture liquid was then used as a pre-culture liquid and added to 50 ml of culture liquid followed by final culturing overnight at 27° C. […]
# A reaction liquid prepared by mixing 80 μl of crude enzyme liquid, 20 μl of 5 mM UDP-glucose, 20 μl of 1 M Tris HCl (pH 7.5) and 1 μl of 500 ng/μl apigenin on ice and bringing to a volume of 200 μl with water was held for 1 hour at 30° C. […] The Shimadzu PDA SPD-M10AVP was used for the detector and flavone was detected at 330 nm. […]
molecule,measurement,setting,value
"NmGT8: nemophila glycosyltransferase (SEQ ID NO: 1/2) having activity that transfers a sugar to the hydroxyl group at the 4′-position of a flavone (protein, listed as Nemophila menziesii) MEKKTIILYPSPGIGHLVSMVELAKLILNREPSYSIIIFISSAPYSTGSSAPYISHVSATTSGISFHHLPVLVLPPNTFSSFEEIAYKIPQLNNPNLKLALQTISKESSDLKAFIIDFFCTAAVEVSSNLEIPTYFFFTSGSSAMCQFLYLPTLHETITQKDLQDPNTYVHIPGIPPIHSLDLPKVLSNRSTVLYKELINTANQMAKCSGILINAFETLEPKAVKALKEGLCTPGMPTPPVYCIGPLIASGDKGNVNDAHGHEILTWLNSQPSKSVVFLCFGSLGTFKEDQLKEIAIGLENSGHRFLWVMKSPPIDDKTKRFLPPPEPDFNVLLPEGFLERTKERGVIVKSWAPQLAILNHDAIGGFVTHCGWNSVLEAICGGVPMLAWPLYAEQRVNRVCMVEEMKVALPLEESVDGFVMASEIEKRVKELVDYESSEAIRDQVKIMSEKAKTAVAVSGSSHDALTKLLDGWK",substrate specificity,NmGT8 protein,high substrate specificity and selectively glycosylate the 4′-position of flavones
same,HPLC peak other than substrate,[1],a peak other than that of the substrate was observed

# From patent publication US10059956B2, “Glycosyltransferase gene and use thereof” (SUNTORY HOLDINGS LIMITED, priority 2012, dated 2018)
